What was measured:
HCV core peptide 56 = HCV core peptide 56 (hepatitis C virus, N-terminal biotin; C-terminal amide); experiment: peptide EIA, 2 ug/mL IgG;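 note: purified mouse IgG binding to individually well-coated synthetic peptides, detected with peroxidase anti-mouse IgG Fc and o-phenylenediamine, IgG incubated at least 1 h at room temperature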
Protocol: (§1) The coated plates were kept dry in a sealed foil pouch and stored at <10 degrees C. until ready for use. A peptide coated plate for each test antibody was blocked using 3% BSA in PBS with 0.5% Tween 20. The blocked plates were washed with distilled water and a 2 ug/mL solution of purified IgG from each test sample diluted in BSA block solution was added to each peptide coated well of the blocked plate and allowed to incubate at room temperature for at least one hour. Following incubation the plates were washed with distilled water. A 200 ng/mL solution of peroxidase labeled F(ab′)2 fragment goat anti-mouse IgG Fc fragment specific (Jackson Immunoresearch) in BSA block solution was added to all wells and incubated at room temperature for 30 minutes. The plates were washed with distilled water and o-phenylenediamine substrate was used as the chromagen to generate signal. Plates were read at 492 nm and the results were analyzed.

HCV core peptide 8 = molecular target: T1, HCV core peptide 8 (hepatitis C virus, N-terminal biotin; C-terminal amide); experiment: peptide EIA, 2 ug/mL IgG;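 note: purified mouse IgG binding to individually well-coated synthetic peptides, detected with peroxidase anti-mouse IgG Fc and o-phenylenediamine, IgG incubated at least 1 h at room temperature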
T1 construct: range 15-29
Protocol: as §1

HCV core peptide 76 = HCV core peptide 76 (hepatitis C virus, N-terminal biotin; C-terminal amide); experiment: peptide EIA, 2 ug/mL IgG;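 note: purified mouse IgG binding to individually well-coated synthetic peptides, detected with peroxidase anti-mouse IgG Fc and o-phenylenediamine, IgG incubated at least 1 h at room temperature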
Protocol: as §1

HCV core peptide 71 = HCV core peptide 71 (hepatitis C virus, N-terminal biotin; C-terminal amide); experiment: peptide EIA, 2 ug/mL IgG;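 note: purified mouse IgG binding to individually well-coated synthetic peptides, detected with peroxidase anti-mouse IgG Fc and o-phenylenediamine, IgG incubated at least 1 h at room temperature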
Protocol: as §1

HCV core peptide 15 = molecular target: T2, HCV core peptide 15 (hepatitis C virus, N-terminal biotin; C-terminal amide); experiment: peptide EIA, 2 ug/mL IgG
T2 construct: range 29-43
Protocol: as §1

HCV core peptide 66 = HCV core peptide 66 (hepatitis C virus, N-terminal biotin; C-terminal amide); experiment: peptide EIA, 2 ug/mL IgG
Protocol: as §1

HCV core peptide 36 = molecular target: T3, HCV core peptide 36 (hepatitis C virus, N-terminal biotin; C-terminal amide); experiment: peptide EIA, 2 ug/mL IgG
T3 construct: range 71-85
Protocol: as §1

HCV core peptide 29 = molecular target: T4, HCV core peptide 29 (hepatitis C virus, N-terminal biotin; C-terminal amide); experiment: peptide EIA, 2 ug/mL IgG
T4 construct: range 57-71
Protocol: as §1

HCV core peptide 3 = molecular target: T5, HCV core peptide 3 (hepatitis C virus, N-terminal biotin; C-terminal amide); experiment: peptide EIA, 2 ug/mL IgG
T5 construct: range 5-19
Protocol: as §1

HCV core peptide 87 = HCV core peptide 87 (hepatitis C virus, N-terminal biotin; C-terminal amide); experiment: peptide EIA, 2 ug/mL IgG
Protocol: as §1

HCV core peptide 26 = molecular target: T6, HCV core peptide 26 (hepatitis C virus, N-terminal biotin; C-terminal amide); experiment: peptide EIA, 2 ug/mL IgG
T6 construct: range 51-65
Protocol: as §1

HCV core peptide 7 = molecular target: T7, HCV core peptide 7 (hepatitis C virus, N-terminal biotin; C-terminal amide); experiment: peptide EIA, 2 ug/mL IgG
T7 construct: range 13-27
Protocol: as §1

HCV core peptide 34 = molecular target: T8, HCV core peptide 34 (hepatitis C virus, N-terminal biotin; C-terminal amide); experiment: peptide EIA, 2 ug/mL IgG
T8 construct: range 67-81
Protocol: as §1

HCV core peptide 6 = molecular target: T9, HCV core peptide 6 (hepatitis C virus, N-terminal biotin; C-terminal amide); experiment: peptide EIA, 2 ug/mL IgG
T9 construct: range 11-25
Protocol: as §1

HCV core peptide 58 = HCV core peptide 58 (hepatitis C virus, N-terminal biotin; C-terminal amide); experiment: peptide EIA, 2 ug/mL IgG
Protocol: as §1

HCV core peptide 22 = molecular target: T10, HCV core peptide 22 (hepatitis C virus, N-terminal biotin; C-terminal amide); experiment: peptide EIA, 2 ug/mL IgG
T10 construct: range 43-57
Protocol: as §1

HCV core peptide 85 = HCV core peptide 85 (hepatitis C virus, N-terminal biotin; C-terminal amide); experiment: peptide EIA, 2 ug/mL IgG
Protocol: as §1

HCV core peptide 32 = molecular target: T11, HCV core peptide 32 (hepatitis C virus, N-terminal biotin; C-terminal amide); experiment: peptide EIA, 2 ug/mL IgG
T11 construct: range 63-77
Protocol: as §1

HCV core peptide 81 = molecular target: T12, HCV core peptide 81 (hepatitis C virus, N-terminal biotin; C-terminal amide); experiment: peptide EIA, 2 ug/mL IgG
T12 construct: range 161-175
Protocol: as §1

HCV core peptide 50 = molecular target: T13, HCV core peptide 50 (hepatitis C virus, HELM PEPTIDE1{[O=C1N[C@H]2[C@H](CS[C@H]2CCCCC(=O)[*:2])N1].S.G.S.G.S.P.R.G.S.R.P.S.W.G.P.T.D.P.R.[am]}$$$$V2.0; SMILES …); experiment: peptide EIA, 2 ug/mL IgG
T13 construct: also called aa 99-113
T13 peptide: SGSGSPRGSRPSWGPTDPR
Protocol: as §1

HCV core peptide 55 = molecular target: T14, HCV core peptide 55 (hepatitis C virus, HELM PEPTIDE1{[O=C1N[C@H]2[C@H](CS[C@H]2CCCCC(=O)[*:2])N1].S.G.S.G.P.T.D.P.R.R.R.S.R.N.L.G.K.V.I.[am]}$$$$V2.0; SMILES …); experiment: peptide EIA, 2 ug/mL IgG
T14 construct: also called aa 109-123
T14 peptide: SGSGPTDPRRRSRNLGKVI
Protocol: as §1

HCV core peptide 59 = HCV core peptide 59 (hepatitis C virus, N-terminal biotin; C-terminal amide); experiment: peptide EIA, 2 ug/mL IgG
Protocol: as §1

HCV core peptide 73 = HCV core peptide 73 (hepatitis C virus, N-terminal biotin; C-terminal amide); experiment: peptide EIA, 2 ug/mL IgG
Protocol: as §1

HCV core peptide 21 = molecular target: T15, HCV core peptide 21 (hepatitis C virus, N-terminal biotin; C-terminal amide); experiment: peptide EIA, 2 ug/mL IgG
T15 construct: range 41-55
Protocol: as §1

HCV core peptide 63 = HCV core peptide 63 (hepatitis C virus, N-terminal biotin; C-terminal amide); experiment: peptide EIA, 2 ug/mL IgG
Protocol: as §1

HCV core peptide 19 = molecular target: T16, HCV core peptide 19 (hepatitis C virus, N-terminal biotin; C-terminal amide); experiment: peptide EIA, 2 ug/mL IgG
T16 construct: range 37-51
Protocol: as §1

HCV core peptide 64 = HCV core peptide 64 (hepatitis C virus, N-terminal biotin; C-terminal amide); experiment: peptide EIA, 2 ug/mL IgG
Protocol: as §1

HCV core peptide 49 = molecular target: T17, HCV core peptide 49 (hepatitis C virus, HELM PEPTIDE1{[O=C1N[C@H]2[C@H](CS[C@H]2CCCCC(=O)[*:2])N1].S.G.S.G.L.L.S.P.R.G.S.R.P.S.W.G.P.T.D.[am]}$$$$V2.0; SMILES …); experiment: peptide EIA, 2 ug/mL IgG
T17 peptide: SGSGLLSPRGSRPSWGPTD
Protocol: as §1

HCV core peptide 46 = HCV core peptide 46 (hepatitis C virus, N-terminal biotin; C-terminal amide); experiment: peptide EIA, 2 ug/mL IgG
Protocol: as §1

[1] = molecular target: T18, 92-133 biotin labeled HCV core peptide (hepatitis C virus, UniProt Q9WMX2 92-133, chain 1: biotin label (bt-pep). Its position and any spacer are not visible in the passages shown.); experiment: capture EIA; Ab 1.953 ng/mL; bt-peptide 500 ng/mL
T18 construct: Only the label 92-133 is printed
T18 peptide: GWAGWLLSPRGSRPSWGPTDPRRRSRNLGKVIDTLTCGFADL
Protocol: Assay wells were coated with sheep anti-mouse IgG Fc specific antibody and incubated overnight. The coating solution was then removed; the wells blocked using BSA/tween in PBS and then washed with dH2O. […] Next, biotin labeled peptides (diluted to 500 ng/mL in block) were added, the plates incubated for 10 minutes while shaking at 700 rpm and then washed. Peroxidase conjugated streptavidin (diluted to 200 ng/mL in block) was then added to all assay wells, incubated for 20 minutes while shaking at 700 rpm and then washed. Finally, color was developed using OPD and signal quenched using 1N H₂SO₄. Signal was read at 492 nm.

B1: Neo4 mouse monoclonal antibody (antibody, V domains shown)
VH: QIQLKESGPAVIKPSQSLSLTCIVSGFSITSSVYCWQWIRQPPGKGLEWMGRICYDGSVDYSPSITSRGTISRDTSLNKVFFQLSSVTNEDTAMYYCSRENHIDYYDTTYPSFDVWGAGTTVTVSS
VL: DIVLTQSPASLIVSLGQRATISCRASKSVNEYGYTYMHWYQQKPGLPPKLLIYLASNLDSGVPARFSGSGSGTDFTLNIHPVEEEDAATYYCQHSRELPYTFGGGTKLEIKR
notes: Mouse hybridoma antibody, isotype IgG1, purified with Protein G; also called HCV Neo4
HCV core peptide 56
  OD (A492 nm): 0.04 OD
HCV core peptide 8
  OD (A492 nm): 0.06 OD
HCV core peptide 76
  OD (A492 nm): 0.05 OD
HCV core peptide 71
  OD (A492 nm): 0.05 OD
HCV core peptide 15
  OD (A492 nm): 0.06 OD
HCV core peptide 66
  OD (A492 nm): 0.05 OD
HCV core peptide 36
  OD (A492 nm): 0.05 OD
HCV core peptide 29
  OD (A492 nm): 0.04 OD
HCV core peptide 3
  OD (A492 nm): 0.05 OD
HCV core peptide 87
  OD (A492 nm): 0.05 OD
HCV core peptide 26
  OD (A492 nm): 0.04 OD
HCV core peptide 7
  OD (A492 nm): 0.07 OD
HCV core peptide 34
  OD (A492 nm): 0.04 OD
HCV core peptide 6
  OD (A492 nm): 0.06 OD
HCV core peptide 58
  OD (A492 nm): 0.05 OD
HCV core peptide 22
  OD (A492 nm): 0.07 OD
HCV core peptide 85
  OD (A492 nm): 0.05 OD
HCV core peptide 32
  OD (A492 nm): 0.06 OD
HCV core peptide 81
  OD (A492 nm): 0.04 OD
HCV core peptide 50
  OD (A492 nm): 1.03 OD
HCV core peptide 55
  OD (A492 nm): 0.97 OD
HCV core peptide 59
  OD (A492 nm): 0.05 OD
HCV core peptide 73
  OD (A492 nm): 0.04 OD
HCV core peptide 21
  OD (A492 nm): 0.05 OD
HCV core peptide 63
  OD (A492 nm): 0.04 OD
HCV core peptide 19
  OD (A492 nm): 0.05 OD
HCV core peptide 64
  OD (A492 nm): 0.04 OD
HCV core peptide 49
  OD (A492 nm): 0.05 OD
HCV core peptide 46
  OD (A492 nm): 0.06 OD
[1]
  signal at 492 nm: 0.129 A492

— US20190170753A1 (ICAHN SCHOOL OF MEDICINE AT MOUNT SINAI, published 2019)
